This is an account of results in patent US20220002412A1 (SINOCELLTECH, published 2022).

Test [1] has as its target T1, recombinant monkey PD-1 protein (monkey, UniProt B0LAJ3 25-170, Biotinylated in the Octet assay; the site of biotinylation is not stated.).
T1 construct: Bought protein; also called biotinylated monkey PD-1 protein
As to the kind of experiment: Octet (BLI), biotinylated monkey PD-1. On the technique in general: In BLI a coated tip is dipped into the sample, and binding shifts an interference pattern.

For test [2], the target named is T1, recombinant monkey PD-1 protein. The experiment in a line: indirect ELISA, coated antigen titrated, antibody at 2 µg/mL.
For test [3], the target named is T2, recombinant mouse PD-1 protein (mouse, UniProt Q02242 25-167, limits assumed, biotinylated in the Octet assay).
T2 construct: Bought protein; also called murine PD-1; biotinylated mouse PD-1 protein
T2 sequence (looked up): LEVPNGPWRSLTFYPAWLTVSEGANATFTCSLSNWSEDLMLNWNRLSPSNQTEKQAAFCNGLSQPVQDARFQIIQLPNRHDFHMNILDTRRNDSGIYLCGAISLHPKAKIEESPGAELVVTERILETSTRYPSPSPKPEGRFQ
The experiment in a line: Octet biolayer interferometry on biotinylated mouse PD-1 protein.

The target of test [4] is T1, recombinant monkey PD-1 protein. The experiment in a line: indirect ELISA, coated antigen titrated (antigenic EC50), antibody at 2 µg/mL.
For test [5], the target named is T3, biotinylated FCGRT-His+B2M protein (human, UniProt P55899 24-297; P61769 21-119, biotinylated).
T3 construct: Bought from Sino Biological; also called recombinant human FcRn protein; human FcRn protein
The experiment in a line: ELISA at pH 6.0, biotinylated FCGRT-His+B2M captured on avidin, antibody at 270 µg/mL. In general terms: An ELISA detects its analyte on a solid surface through an enzyme-linked reagent.

Test [6] deals with T4, recombinant CD16a-AVI-His (V158)+BirA protein (UniProt P08637 17-208, +BirA (AVI tag, detected with streptavidin/HRP)).
T4 construct: Bought from Sino Biological; It is the V158 allotype as printed; also called recombinant CD16a (V158) protein; recombinant CD16a protein
As to the kind of experiment: ELISA: antibody titrated on coated recombinant human PD-1, then recombinant CD16a-AVI-His (V158)+BirA with streptavidin/HRP.

Test [7] addresses T5, recombinant human PD-1 protein (Sino Biological, Inc, Cat. 10377-H08H) (human, UniProt Q15116 25-167). The experiment in a line: monoclonal phage ELISA on recombinant human PD-1 protein.
The target in test [8] is T5, recombinant human PD-1 protein (Sino …). The experiment in a line: competition ELISA: coated recombinant human PD-1, blocked ligand PD-L1-Fc-biotin, antibody at three concentrations.

T1 sequence (B0LAJ3 entry or part of it limits assumed): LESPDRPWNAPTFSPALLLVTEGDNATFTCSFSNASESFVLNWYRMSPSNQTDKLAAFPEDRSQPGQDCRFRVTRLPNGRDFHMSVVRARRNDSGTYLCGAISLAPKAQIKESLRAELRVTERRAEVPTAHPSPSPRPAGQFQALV
T5 sequence (Q15116 25-167 limits assumed): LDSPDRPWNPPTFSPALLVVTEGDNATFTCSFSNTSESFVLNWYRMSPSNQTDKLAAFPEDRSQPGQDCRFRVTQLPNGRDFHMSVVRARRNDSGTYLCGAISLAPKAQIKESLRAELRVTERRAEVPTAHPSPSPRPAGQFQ
T4 sequence (P08637 17-208 F176V limits assumed): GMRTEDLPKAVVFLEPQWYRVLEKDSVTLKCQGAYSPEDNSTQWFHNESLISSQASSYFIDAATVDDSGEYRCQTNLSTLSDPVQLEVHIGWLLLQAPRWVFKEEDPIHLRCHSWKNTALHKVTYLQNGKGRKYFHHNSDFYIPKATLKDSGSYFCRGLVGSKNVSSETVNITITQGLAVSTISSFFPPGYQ
T3 sequence (P55899 24-297 limits assumed, chain 1 of 2): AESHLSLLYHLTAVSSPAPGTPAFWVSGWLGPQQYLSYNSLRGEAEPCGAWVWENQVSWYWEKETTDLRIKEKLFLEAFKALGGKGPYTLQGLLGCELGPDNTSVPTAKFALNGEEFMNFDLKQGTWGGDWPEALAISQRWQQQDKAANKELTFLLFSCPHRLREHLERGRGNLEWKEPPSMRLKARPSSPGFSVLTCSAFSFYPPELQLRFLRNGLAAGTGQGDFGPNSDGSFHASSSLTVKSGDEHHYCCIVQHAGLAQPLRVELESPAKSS
T3 sequence (P61769 21-119 limits assumed, chain 2 of 2): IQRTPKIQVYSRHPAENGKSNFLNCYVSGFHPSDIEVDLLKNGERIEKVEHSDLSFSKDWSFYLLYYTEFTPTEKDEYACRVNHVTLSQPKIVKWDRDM

B1: Nivolumab (antibody, V domains shown)
VH: QVQLVESGGGVVQPGRSLRLDCKASGITFSNSGMHWVRQAPGKGLEWVAVIWYDGSKRYYADSVKGRFTISRDNSKNTLFLQMNSLRAEDTAVYYCATNDDYWGQGTLVTVSS
VL: EIVLTQSPATLSLSPGERATLSCRASQSVSSYLAWYQQKPGQAPRLLIYDASNRATGIPARFSGSGSGTDFTLTISSLEPEDFAVYYCQQSSNWPRTFGQGTKVEIK
As usually defined, the Kd is the equilibrium constant for the complex coming apart. For orientation: EC50 means the concentration at which the effect is half-maximal. For the molecule B1, the Kd in test [1] was found to be 0.131 nM. Further, the concentration for a half-maximal effect (EC50) in test [2] worked out at 0.0802 µg/mL.

B2: humanized antibody PD1-H944 (antibody, human IgG4 S228P, kappa)
heavy: not shown
light: EIVLTQSPATLSLSPGERATLSCRASESVDSYGNSFMHWYQQKPGQPPRLLIYAASNQGSGVPARFSGSGSGTDFTLTISSLEPEDFAMYFCQQSKEVPWTFGQGTKVEIKRTVAAPSVFIFPPSDEQLKSGTASVVCLLNNFYPREAKVQWKVDNALQSGNSQESVTEQDSKDSTYSLSSTLTLSKADYEKHKVYACEVTHQGLSSPVTKSFNRGEC
On to B2, for which the Kd in test [1] turned out to be 0.108 nM. Also, the binding result is reported as “no binding (tested: 13.30 nM)” in test [3] and “no binding (tested: 80 µg/mL)” in test [6]. Also, the concentration for a half-maximal effect (EC50) in test [4] stood at 0.0327 µg/mL. Besides, the “binding relative to Nivolumab at 270 µg/mL” value in test [5] was about 1.62 times.

B3: M944 scFv antibody (scFv)
scFv: DIVLTQSPASLAVSLGQRATISCRASESVDSYGNSFMHWYQQKPGQPPKLLIYAASNQGSGVPARFSGSGSGTDFSLNIHPMEEDDTAMYFCQQSKEVPWTFGGGTKLEIKSSGGGGSGGGGGGSSRSSEVQLVESGGGLVKPGGSLKLSCAASGFTFSSYGMSWVRQTPEKRLEWVATISGGGRDTYYSDSVKGRFTVSRDNAKNNLFLQMSSLRSEDTALYYCSRQYGTVWFFNWGQGTLVTVSA
notes: Tested as a monoclonal phage clone (pComb3x phage display); Any phage fusion partner is not described; also called PD1-M944 scFv
Regarding B3, in test [7], the binding result is given as “binds”.

B4: murine antibody PD1-M944 (antibody, mouse IgG1, V domains shown)
VH: EVQLVESGGGLVKPGGSLKLSCAASGFTFSSYGMSWVRQTPEKRLEWVATISGGGRDTYYSDSVKGRFTVSRDNAKNNLFLQMSSLRSEDTALYYCSRQYGTVWFFNWGQGTLVTVSA
VL: not shown
notes: Full antibody with mouse IgG1 heavy chain constant region and mouse kappa light chain constant region; Expressed in HEK-293 cells
B4: the binding result in test [8] was “binds”.
